{
  "source": "paper PMC4459106",
  "proteins": {"B1": {"name": "ppERK2 (Rattus norvegicus) (protein)", "chain": "MAAAAAAGPEMVRGQVFDVGPRYTNLSYIGEGAYGMVCSAYDNLNKVRVAIKKISPFEHQTYCQRTLREIKILLRFRHENIIGINDIIRAPTIEQMKDVYIVQDLMETDLYKLLKTQHLSNDHICYFLYQILRGLKYIHSANVLHRDLKPSNLLLNTTCDLKICDFGLARVADPDHDHTGFLTEYVATRWYRAPEIMLNSKGYTKSIDIWSVGCILAEMLSNRPIFPGKHYLDQLNHILGILGSPSQEDLNCIINLKARNYLLSLPHKNKVPWNRLFPNADSKALDLLDKMLTFNPHKRIEVEQALAHPYLEQYYDPSDEPIAEAPFKFDMELDDLPKEKLKELIFEETARFQPGYRS", "notes": "made in house"}},
  "substrate": "CC(C)C[C@H](NC(=O)[C@H](CCCCN)NC(=O)[C@H](C)NC(=O)[C@@H]1CCCN1C(=O)[C@H](CO)NC(=O)[C@H](CCCNC(=N)N)NC(=O)[C@@H]1CCCN1)C(=O)N[C@@H](CO)C(=O)N[C@@H](Cc1ccccc1)C(=O)N[C@@H](CCC(N)=O)C(=O)N[C@@H](Cc1ccccc1)C(=O)N1CCC[C@H]1C(=O)N[C@@H](CO)C(=O)O",
  "test": "purified protein, by the assay type",
  "assay_type": "biochemical, rat (rat ERK2 numbering used throughout)",
  "conditions": "other: phosphorylation by 2 nM ppERK2, 1.6–400 μM Elk387-399, 500 μM γ-32P ATP, 25 mM HEPES pH 7.5, 10 mM MgCl2, 30 °C, Michaelis-Menten fit",
  "experimental": "Kinase assays to determine the Michelis-Menten parameters for the phosphorylation of Elk387-399by ppERK2 were performed in 100 μL volumes at 30 °C in a buffer containing 25 mM HEPES pH 7.5, 50 mM KCl, 0.1 mM EDTA, 0.1 mM EGTA, 2 mM DTT, 10 mM MgCl2, and 40 μg/mL BSA. […] The reaction mixture was incubated for 10 minutes at 30 °C before initiation with 500 μM γ-^32P ATP (specific activity of 1 × 10^15 cpm/mol). Aliquots (10 μL) were spotted onto P81 filter papers at fixed times. The filter papers were washed three times for 15 minutes with 50 mM phosphoric acid to remove excess ATP and washed once with acetone for drying. The amount of phosphate incorporated into Elk387-399was determined by the associated counts per minute on a scintillation counter (Packard 1500) at a σ value of 2.",
  "data": [
    {"protein": "B1", "values": [
      {"measurement": "Km", "value": "13.4 ± 1.1", "unit": "µM"},
      {"measurement": "kcat", "value": "0.56 ± 0.1", "unit": "s⁻¹"}
    ]}
  ]
}
